The record followed here is US20190233493A1 (Sanofi, published 2019).

To fix the notation:
T1: RXFP1 receptor (UniProt Q9HBX9 1-757, limits assumed)
T1 sequence (looked up): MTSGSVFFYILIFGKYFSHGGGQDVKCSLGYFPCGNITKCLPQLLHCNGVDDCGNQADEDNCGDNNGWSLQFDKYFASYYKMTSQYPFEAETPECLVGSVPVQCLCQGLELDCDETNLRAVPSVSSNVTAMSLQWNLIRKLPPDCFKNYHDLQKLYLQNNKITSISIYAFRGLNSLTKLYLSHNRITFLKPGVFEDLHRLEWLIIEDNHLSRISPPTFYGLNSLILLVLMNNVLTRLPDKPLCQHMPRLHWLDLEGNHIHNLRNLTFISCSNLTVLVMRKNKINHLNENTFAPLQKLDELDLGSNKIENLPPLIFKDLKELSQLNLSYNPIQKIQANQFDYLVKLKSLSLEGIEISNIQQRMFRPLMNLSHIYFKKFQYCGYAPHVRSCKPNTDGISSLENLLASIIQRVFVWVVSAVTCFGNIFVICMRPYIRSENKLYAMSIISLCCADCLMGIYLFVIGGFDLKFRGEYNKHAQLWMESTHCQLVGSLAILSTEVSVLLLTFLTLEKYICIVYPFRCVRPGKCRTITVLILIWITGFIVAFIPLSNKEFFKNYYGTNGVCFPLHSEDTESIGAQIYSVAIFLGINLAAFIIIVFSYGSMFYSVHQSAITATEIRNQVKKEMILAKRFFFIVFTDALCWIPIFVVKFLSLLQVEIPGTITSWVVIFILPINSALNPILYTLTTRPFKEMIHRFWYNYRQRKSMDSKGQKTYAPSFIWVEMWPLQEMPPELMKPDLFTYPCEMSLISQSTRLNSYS

B1: peptide of SEQ ID NO: 136 (peptide)
peptide: Ac-LEGREKVRAK(Ac)I[Aib][Aib]EG[Nle]STWSXRKK(Ac)[PEG2′][PEG2′][PEG2′][PEG2′][γGlu][γGlu][γGlu]K([γGlu-Palmitoyl])-NH2
modifications: not fully specified (some residues); printed as Ac-L-E-G-R-E-K-V-R-A-K(Ac)-I-Aib-Aib-E-G-Nle-S-T-W-S-Mly-R-K-K(Ac)-PEG2-PEG2-PEG2-PEG2-gE-gE-gE-K(gE-Palm)-NH2
B2: peptide of SEQ ID NO: 139 (peptide)
peptide: Ac-LEGREKVRAK(Ac)I[Aib][Aib]EG[Nle]STFSXAAK(Ac)[PEG2′][PEG2′][PEG2′][PEG2′][γGlu][γGlu][γGlu]K([γGlu-Palmitoyl])-NH2
modifications: not fully specified (some residues); printed as Ac-L-E-G-R-E-K-V-R-A-K(Ac)-I-Aib-Aib-E-G-Nle-S-T-F-S-Mly-A-A-K(Ac)-PEG2-PEG2-PEG2-PEG2-gE-gE-gE-K(gE-Palm)-NH2
B3: peptide of SEQ ID NO: 145 (peptide)
peptide: Ac-LEGREKVRAK(Ac)I[Aib][Aib]EG[Nle]STFSXRKK(Ac)[PEG2′][PEG2′][PEG2′][PEG2′][γGlu][γGlu][γGlu]K([γGlu-Palmitoyl])-NH2
modifications: not fully specified (some residues); printed as Ac-L-E-G-R-E-K-V-R-A-K(Ac)-I-Aib-Aib-E-G-Nle-S-T-F-S-Mly-R-K-K(Ac)-PEG2-PEG2-PEG2-PEG2-gE-gE-gE-K(gE-Palm)-NH2

*1 amine or outer side, *2 acyl side, *3 side chain or, on linkers, in order; H or OH if unused. Primed or numbered codes have the meaning given here. Side-chain parts run from the residue outwards. [ ]: non-standard residue; d: D form. The star is where a group is joined. Lys(Me3) = C[N+](C)(C)CCCC[C@H](N)C(=O)O; αMeW = C[C@](N)(Cc1c[nH]c2ccccc12)C(=O)O; γGlu = O=C(O)[C@H](CCC(=O)[*:2])N[*:1]; Arg(Me) = CNC(=N)NCCC[C@H](N)C(=O)O; Stearoyl = CCCCCCCCCCCCCCCCCC(=O)*; Palmitoyl = CCCCCCCCCCCCCCCC(=O)*; Cit = NC(=O)NCCC[C@H](N)C(=O)O; αMeK = C[C@](N)(CCCCN)C(=O)O; Nle = CCCC[C@H](N)C(=O)O; PEG2′ = PEG2 spacer unit; PEG2″ = not defined here; Aib = CC(C)(N)C(=O)O

This test concerns the target T1, RXFP1 receptor. The test can be described thus: cell-based or functional assay.
Ac-LEGREKVRAK(Ac)I[Aib][Aib]EG[Nle]STWS[αMeK][Arg(Me)][Lys(Me3)]K(Ac)K([PEG2′-PEG2′-PEG2′-γGlu-γGlu-γGlu-Stearoyl])-NH2 [peptide of SEQ ID NO: 138]: the “EC50 (nM), OVCAR 5 cells (cAMP)” value worked out at 0.02 nM and the “EMax, OVCAR 5 cells (cAMP)” value amounted to 91%.

In the case of Ac-LEGREKVRAK(Ac)I[Aib][Aib]EG[Nle]STWS[Aib][Cit]AK(Ac)K([PEG2′-PEG2′-PEG2′-γGlu-γGlu-γGlu-Stearoyl])-NH2 [peptide of SEQ ID NO: 126], the “EC50 (nM), OVCAR 5 cells (cAMP)” value was found to be 9.6 nM and the “EMax, OVCAR 5 cells (cAMP)” value turned out to be 91%.

On to Ac-LEGREKVRAK(Ac)I[Aib][Aib]EG[Nle]STWS[αMeK][Cit]AK(Ac)K([PEG2′-PEG2′-PEG2′-PEG2′-γGlu-γGlu-γGlu-Stearoyl])-NH2 [peptide of SEQ ID NO: 132], for which the “EC50 (nM), OVCAR 5 cells (cAMP)” value is 1.7 nM and the “EMax, OVCAR 5 cells (cAMP)” value stood at 87%.

In the case of Ac-LEGREKVRAK(Ac)I[Aib][Aib]EG[Nle]STFS[αMeK]RKK(Ac)[PEG2′][PEG2′][PEG2′][PEG2′]K([γGlu-γGlu-γGlu-γGlu-Palmitoyl])-NH2 [peptide of SEQ ID NO: 143], the “EC50 (nM), OVCAR 5 cells (cAMP)” value came to 0.4 nM and the “EMax, OVCAR 5 cells (cAMP)” value worked out at 88%.

On to Ac-LEGREKVRAK(Ac)I[Aib][Aib]EG[Nle]STWS[Aib]RKK(Ac)K([PEG2′-PEG2′-PEG2′-γGlu-γGlu-γGlu-γGlu-Stearoyl])-NH2 [peptide of SEQ ID NO: 128], for which the “EC50 (nM), OVCAR 5 cells (cAMP)” value stood at 0.22 nM and the “EMax, OVCAR 5 cells (cAMP)” value was 91%.

As for B1, the “EC50 (nM), OVCAR 5 cells (cAMP)” value came out at 0.03 nM and the “EMax, OVCAR 5 cells (cAMP)” value amounted to 92%.

Take Ac-LEGREKVRAQI[Aib][Aib]EG[Nle]STWS[Aib]RK[PEG2′]K([PEG2′-PEG2′-γGlu-γGlu-γGlu-Palmitoyl])-NH2 [peptide of SEQ ID NO: 13]: the “EC50 (nM), OVCAR 5 cells (cAMP)” value turned out to be 8.1 nM and the “EMax, OVCAR 5 cells (cAMP)” value turned out to be 81%.

For Ac-LEGREKVRAK(Ac)I[Aib][Aib]EG[Nle]STWS[Aib]R[Lys(Me3)]K(Ac)K([PEG2′-PEG2′-PEG2′-γGlu-γGlu-γGlu-Stearoyl])-NH2 [peptide of SEQ ID NO: 134], the “EC50 (nM), OVCAR 5 cells (cAMP)” value came to 6.3 nM and the “EMax, OVCAR 5 cells (cAMP)” value is 100%.

Ac-LEGREKVRAK(Ac)I[Aib][Aib]EG[Nle]STFS[αMeK]RKK(Ac)K([PEG2′-PEG2′-PEG2′-PEG2′-γGlu-γGlu-γGlu-γGlu-Palmitoyl])-NH2 [peptide of SEQ ID NO: 140]: the “EC50 (nM), OVCAR 5 cells (cAMP)” value is 0.4 nM and the “EMax, OVCAR 5 cells (cAMP)” value amounted to 88%.

Ac-LEGREKVRAK(Ac)I[Aib][Aib]EG[Nle]STWS[Aib]RKK[PEG2″][PEG2″][PEG2″][PEG2″]K([γGlu-γGlu-γGlu-γGlu-Stearoyl])-NH2 [peptide of SEQ ID NO: 15]: the “EC50 (nM), OVCAR 5 cells (cAMP)” value was 0.32 nM and the “EMax, OVCAR 5 cells (cAMP)” value was 92%.

In the case of Ac-LEGREKVRAK(Ac)I[Aib][Aib]EG[Nle]STWS[Aib][Arg(Me)][Lys(Me3)]K(Ac)K([PEG2′-PEG2′-PEG2′-γGlu-γGlu-γGlu-Stearoyl])-NH2 [peptide of SEQ ID NO: 137], the “EC50 (nM), OVCAR 5 cells (cAMP)” value stood at 0.21 nM and the “EMax, OVCAR 5 cells (cAMP)” value was 92%.

For the molecule Ac-LEGREKVRAK(Ac)I[Aib][Aib]EG[Nle]STWS[Aib]RKK(Ac)[PEG2′][PEG2′][PEG2′]K([γGlu-γGlu-γGlu-Stearoyl])-NH2 [peptide of SEQ ID NO: 14], the “EC50 (nM), OVCAR 5 cells (cAMP)” value was found to be 0.04 nM and the “EMax, OVCAR 5 cells (cAMP)” value was determined as 88%.

For Ac-LEGREKVRAK(Ac)I[Aib][Aib]EG[Nle]STFS[Aib]RKK(Ac)[PEG2′][PEG2′][PEG2′][PEG2′]K([γGlu-γGlu-γGlu-Palmitoyl])-NH2 [peptide of SEQ ID NO: 144], the “EC50 (nM), OVCAR 5 cells (cAMP)” value came out at 4.1 nM and the “EMax, OVCAR 5 cells (cAMP)” value came to 94%.

Regarding Ac-LEGREKVRAK(Ac)I[Aib][Aib]EG[Nle]STWS[αMeK][Cit]KK(Ac)K([PEG2′-PEG2′-PEG2′-γGlu-γGlu-γGlu-Stearoyl])-NH2 [peptide of SEQ ID NO: 129], the “EC50 (nM), OVCAR 5 cells (cAMP)” value is 1 nM and the “EMax, OVCAR 5 cells (cAMP)” value turned out to be 89%.

In the case of B2, the “EC50 (nM), OVCAR 5 cells (cAMP)” value is 0.3 nM and the “EMax, OVCAR 5 cells (cAMP)” value was 92%.

In the case of Ac-LEGREKVRAK(Ac)I[Aib][Aib]EG[Nle]STWS[Aib]RKK(Ac)K([PEG2′-PEG2′-PEG2′-PEG2′-γGlu-γGlu-γGlu-γGlu-Palmitoyl])-NH2 [peptide of SEQ ID NO: 130], the “EC50 (nM), OVCAR 5 cells (cAMP)” value stood at 0.3 nM and the “EMax, OVCAR 5 cells (cAMP)” value amounted to 93%.

For Ac-LEGREKVRAK(Ac)I[Aib][Aib]EG[Nle]STWS[αMeK]RKK(Ac)[PEG2′][PEG2′][PEG2′][PEG2′]K([γGlu-γGlu-γGlu-γGlu-Palmitoyl])-NH2 [peptide of SEQ ID NO: 131], the “EC50 (nM), OVCAR 5 cells (cAMP)” value was 0.26 nM and the “EMax, OVCAR 5 cells (cAMP)” value came out at 92%.

On to Ac-LEGREKVRAK(Ac)I[Aib][Aib]EG[Nle]STWS[Aib][Arg(Me)]KK(Ac)K([PEG2′-PEG2′-PEG2′-γGlu-γGlu-γGlu-Stearoyl])-NH2 [peptide of SEQ ID NO: 133], for which the “EC50 (nM), OVCAR 5 cells (cAMP)” value was 0.01 nM and the “EMax, OVCAR 5 cells (cAMP)” value came out at 83%.

As for B3, the “EC50 (nM), OVCAR 5 cells (cAMP)” value was 0.4 nM and the “EMax, OVCAR 5 cells (cAMP)” value worked out at 99%.

In the case of Ac-LEGREKVRAK(Ac)I[Aib][Aib]EG[Nle]STWS[αMeK][Arg(Me)][Lys(Me3)]K(Ac)K([PEG2′-PEG2′-PEG2′-PEG2′-γGlu-γGlu-γGlu-γGlu-Palmitoyl])-NH2 [peptide of SEQ ID NO: 141], the “EC50 (nM), OVCAR 5 cells (cAMP)” value amounted to 0.16 nM and the “EMax, OVCAR 5 cells (cAMP)” value came out at 87%.

Ac-LEGREKVRAK(Ac)I[Aib][Aib]EG[Nle]STWS[αMeK]RAK(Ac)K([PEG2′-PEG2′-PEG2′-PEG2′-γGlu-γGlu-γGlu-Stearoyl])-NH2 [peptide of SEQ ID NO: 135]: the “EC50 (nM), OVCAR 5 cells (cAMP)” value stood at 0.95 nM and the “EMax, OVCAR 5 cells (cAMP)” value is 97%.

For the molecule Ac-LEGREKVRAK(Ac)I[Aib][Aib]EG[Nle]ST[αMeW]S[αMeK]RKK(Ac)[PEG2′][PEG2′][PEG2′]K([γGlu-γGlu-γGlu-γGlu-Palmitoyl])-NH2 [peptide of SEQ ID NO: 125], the “EC50 (nM), OVCAR 5 cells (cAMP)” value amounted to 0.1 nM and the “EMax, OVCAR 5 cells (cAMP)” value came out at 89%.
